Reference: doi:10.1101/2024.01.20.576400 (bioRxiv, 2024)
pKd: −log10 of the molar value.

Assays:
[1] = target: Pwl2-2 (Magnaporthe oryzae); experiment: ITC
[2] = target: Pwl2-3 (Magnaporthe oryzae); experiment: ITC

HMA domain of OsHIPP43 (residues 26-101) (from UniProt Q8LJL3 26-101) (domain or fragment)
pKd [1]: 6.85
pKd [2]: 7.46
